Here are results for 14 molecules from patent US20250215104A1 (WALDEN BIOSCIENCES, published 2025).

Test [1] deals with T1, cynomolgus soluble urokinase plasminogen activator receptor (cynomolgus suPAR) (cynomolgus, UniProt Q9GK78 23-303, limits assumed).
T1 construct: also called cynomolgus uPAR; cynoPLAUR-His
Briefly: BLI (Octet) off-rate screen of scFv. A general note: Biolayer interferometry detects binding as a change in optical thickness at a sensor tip.

In test [2] the target is T2, human soluble urokinase plasminogen activator receptor (hsuPAR) (human, UniProt Q03405 23-303, limits assumed).
T2 construct: also called human suPAR; rhuPAR-His
Briefly: BLI (Octet) off-rate screen of scFv.

T2 sequence (Q03405 23-303 limits assumed): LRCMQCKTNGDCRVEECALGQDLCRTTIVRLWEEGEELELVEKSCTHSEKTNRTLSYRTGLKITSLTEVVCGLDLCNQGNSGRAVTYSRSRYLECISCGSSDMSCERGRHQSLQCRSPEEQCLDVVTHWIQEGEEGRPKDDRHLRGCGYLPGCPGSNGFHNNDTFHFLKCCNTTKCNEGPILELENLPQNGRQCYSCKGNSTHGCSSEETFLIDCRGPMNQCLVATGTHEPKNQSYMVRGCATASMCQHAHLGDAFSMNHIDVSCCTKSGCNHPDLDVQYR
T1 sequence (Q9GK78 23-303 limits assumed): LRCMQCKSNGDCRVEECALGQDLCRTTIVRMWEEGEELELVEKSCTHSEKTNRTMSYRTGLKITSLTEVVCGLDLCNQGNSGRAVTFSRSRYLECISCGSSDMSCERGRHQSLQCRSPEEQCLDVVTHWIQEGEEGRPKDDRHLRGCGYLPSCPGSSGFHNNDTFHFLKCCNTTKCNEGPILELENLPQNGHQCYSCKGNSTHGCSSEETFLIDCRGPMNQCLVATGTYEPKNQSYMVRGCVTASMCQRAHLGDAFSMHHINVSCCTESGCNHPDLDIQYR

B1: suPAR_DB01_F03 (scFv, V domains shown)
VH: QVQLVQSGAEVKKPGASVKVSCKASGYTFTSYYMHWVRQAPGQGLEWMGWIDHENGNTIYDQKFQGRVTMTRDTSTSTVYMELSSLRSEDTAVYYCARGYDVDWFVYWGQGTLVTVSS
VL: DIQMTQSPSSLSASVGDRVTITCSARQSVSYMYWYQQKPGKAPKLLIYRTSNLASGVPSRFSGSGSGTDFTLTISSLQPEDFATYYCQQYHSYPPTFGGGTKVEIK
notes: Screened as scFv
As to B1, the results for the koff in test [1] and in test [2] were 6.17e-07 s⁻¹ and 0.00251 s⁻¹, respectively.

B2: suPAR_DB01_G04 (scFv, V domains shown)
VH: QVQLVQSGAEVKKPGASVKVSCKASGYTLSGYYMHWVRQAPGQGLEWMGWIDPNSGGTKYAQKFQGRVTMTRDTSTSTVYMELSSLRSEDTAVYYCARGYDVDWFVYWGQGTLVTVSS
VL: DIQMTQSPSSLSASVGDRVTITCRARQSVSYMYWYQQKPGKAPKLLIYRTSNLASGVPSRFSGSGSGTDFTLTISSLQPEDFATYYCQQYHSYPPTFGGGTKVEIK
notes: Screened as scFv
On to B2, for which the koff (usually the first-order rate constant of dissociation) in test [1] was 7.99e-05 s⁻¹; in test [2] it was 0.00364 s⁻¹.

B3: suPAR_DB01_G08 (scFv, V domains shown)
VH: QVQLVQSGAEVKKPGASVKVSCKASGYSFTNYYMHWVRQAPGQGLEWMGWIDHENGNTSYAQKFQGRVTMTRDTSTSTVYMELSSLRSEDTAVYYCARGYDVDWFVYWGQGTLVTVSS
VL: DIQMTQSPSSLSASVGDRVTITCSARQSVSYMYWYQQKPGKAPKLLIYRTSSLASGVPSRFSGSGSGTDFTLTISSLQPEDFATYYCQQYHSYPPTFGGGTKVEIK
notes: Screened as scFv
Turning to B3, the koff in test [1] is 0.000104 s⁻¹; in test [2] it was 0.00309 s⁻¹.

B4: suPAR_DB01_F10 (scFv, V domains shown)
VH: QVQLVQSGAEVKKPGASVKVSCKASGYTFTSYYMHWVRQAPGQGLEWMGWIDHENGSTSYDQKFQGRVTMTRDTSTSTVYMELSSLRSEDTAVYYCARGYDVDWFVYWGQGTLVTVSS
VL: DIQMTQSPSSLSASVGDRVTITCSARSSVSYMYWYQQKPGKAPKLLIYRTSNLASGVPSRFSGSGSGTDFTLTISSLQPEDFATYYCQQYHSYPPTFGGGTKVEIK
notes: Screened as scFv
In the case of B4, the off-rate constant (koff) is 3.88e-05 s⁻¹ in test [1] and 0.00183 s⁻¹ in test [2].

B5: suPAR_DB01_F11 (scFv, V domains shown)
VH: QVQLVQSGAEVKKPGASVKVSCKASGYTFTSYYMHWVRQAPGQGLEWMGWIDHEGGNTSYAQKFQGRVTMTRDTSTSTVYMELSSLRSEDTAVYYCARGYDVDWFVYWGQGTLVTVSS
VL: DIQMTQSPSSLSASVGDRVTITCRASSSVSYMYWYQQKPGKAPKLLIYRTSNLASGVPSRFSGSGSGTDFTLTISSLQPEDFATYYCQQYHSYPPTFGGGTKVEIK
notes: Screened as scFv
Regarding B5, the off-rate constant (koff) in test [1] was determined as 9.02e-05 s⁻¹; in test [2], 0.00293 s⁻¹.

B6: suPAR_DB01_F08 (scFv, V domains shown)
VH: QVQLVQSGAEVKKPGASVKVSCKASGYTFTGYYMHWVRQAPGQGLEWMGWIDHENGSTIYAQKFQGRVTMTRDTSTSTVYMELSSLRSEDTAVYYCARGYDVDWFVYWGQGTLVTVSS
VL: DIQMTQSPSSLSASVGDRVTITCRARQSVSYMYWYQQKPGKAPKLLIYRTSNLASGVPSRFSGSGSGTDFTLTISSLQPEDFATYYCQQYHSYPPTFGGGTKVEIK
notes: Screened as scFv
Take B6: the dissociation rate constant (koff) in test [1] came to 0.000207 s⁻¹; in test [2], 0.000505 s⁻¹.

B7: suPAR_DB01_F02 (scFv, V domains shown)
VH: QVQLVQSGAEVKKPGASVKVSCKASGYTFTNYYVHWVRQAPGQGLEWMGWIDHENGNTIYDQKFQGRVTMTRDTSTSTVYMELSSLRSEDTAVYYCARGYDVDWFVYWGQGTLVTVSS
VL: DIQMTQSPSSLSASVGDRVTITCSARSSVSYMYWYQQKPGKAPKLLIYRTSNLASGVPSRFSGSGSGTDFTLTISSLQPEDFATYYCQQYHSYPPTFGGGTKVEIK
notes: Screened as scFv
Take B7: the koff in test [1] worked out at 9.84e-05 s⁻¹; in test [2], 0.004 s⁻¹.

B8: suPAR_DB01_F05 (scFv, V domains shown)
VH: QVQLVQSGAEVKKPGASVKVSCKASGYTFSNYYMHWVRQAPGQGLEWMGWIDHEGGSTIYDQKFQGRVTMTRDTSTSTVYMELSSLRSEDTAVYYCARGYDVDWFVYWGQGTLVTVSS
VL: DIQMTQSPSSLSASVGDRVTITCSARSSVSYMYWYQQKPGKAPKLLIYRTSNLASGVPSRFSGSGSGTDFTLTISSLQPEDFATYYCQQYHSYPPTFGGGTKVEIK
notes: Screened as scFv
With B8, the results for the koff in test [1] and in test [2] were 4.95e-07 s⁻¹ and 0.00175 s⁻¹, respectively.

B9: suPAR_DB01_G07 (scFv, V domains shown)
VH: QVQLVQSGAEVKKPGASVKVSCKASGNTFTSYYMHWVRQAPGQGLEWMGWIDPENGNTIYDQKFQGRVTMTRDTSTSTVYMELSSLRSEDTAVYYCARGYDVDWFVYWGQGTLVTVSS
VL: DIQMTQSPSSLSASVGDRVTITCSARSSVSYMYWYQQKPGKAPKLLIYRTSNLASGVPSRFSGSGSGTDFTLTISSLQPEDFATYYCQQYHSYPPTFGGGTKVEIK
notes: Screened as scFv
For B9, the koff amounted to 1.73e-05 s⁻¹ in test [1] and 0.00407 s⁻¹ in test [2].

B10: suPAR_DB01_F04 (scFv, V domains shown)
VH: QVQLVQSGAEVKKPGASVKVSCKASGYTFTDYYMHWVRQAPGQGLEWMGWIDHSNGNTIYAQKFQGRVTMTRDTSTSTVYMELSSLRSEDTAVYYCARGYDVDWFVYWGQGTLVTVSS
VL: DIQMTQSPSSLSASVGDRVTITCSARSSVSYMYWYQQKPGKAPKLLIYRTSNLASGVPSRFSGSGSGTDFTLTISSLQPEDFATYYCQQYHSYPPTFGGGTKVEIK
notes: Screened as scFv
For the molecule B10, the koff in test [1] stood at 4.59e-05 s⁻¹; in test [2], 0.00309 s⁻¹.

B11: suPAR_DB01_G01 (scFv, V domains shown)
VH: QVQLVQSGAEVKKPGASVKVSCKASGDTFSSYYMHWVRQAPGQGLEWMGWIDHENGNTIYDQKFQGRVTMTRDTSTSTVYMELSSLRSEDTAVYYCARGYDVDWFVYWGQGTLVTVSS
VL: DIQMTQSPSSLSASVGDRVTITCSARSSVSYMYWYQQKPGKAPKLLIYRTSNLASGVPSRFSGSGSGTDFTLTISSLQPEDFATYYCQQYHSYPPTFGGGTKVEIK
notes: Screened as scFv
Consider B11, for which the figures for the koff in test [1] and in test [2] were 0.000152 s⁻¹ and 0.00429 s⁻¹, respectively.

B12: suPAR_DB01_F06 (scFv, V domains shown)
VH: QVQLVQSGAEVKKPGASVKVSCKASGYTFTSYYMHWVRQAPGQGLEWMGWIDHENGNTIYAQKFQGRVTMTRDTSTSTVYMELSSLRSEDTAVYYCARGYDVDWFVYWGQGTLVTVSS
VL: DIQMTQSPSSLSASVGDRVTITCSARQSISYMYWYQQKPGKAPKLLIYRTSNLQSGVPSRFSGSGSGTDFTLTISSLQPEDFATYYCQQYHSYPPTFGGGTKVEIK
notes: Screened as scFv
B12: the off-rate (koff) in test [1] was found to be 4.98e-05 s⁻¹; in test [2], 0.00267 s⁻¹.

B13: suPAR_DB01_F12 (scFv, V domains shown)
VH: QVQLVQSGAEVKKPGASVKVSCKASGFNIKDYYIHWVRQAPGQGLEWMGWIDPENGSTIYDQKFQGRVTMTRDTSTSTVYMELSSLRSEDTAVYYCARGYDVDWFVYWGQGTLVTVSS
VL: DIQMTQSPSSLSASVGDRVTITCRARQSVSYMYWYQQKPGKAPKLLIYRTSNLASGVPSRFSGSGSGTDFTLTISSLQPEDFATYYCQQYHSYPPTFGGGTKVEIK
notes: Screened as scFv
B13: the dissociation rate constant (koff) in test [1] was found to be 0.000192 s⁻¹; in test [2] it was 0.00282 s⁻¹.

B14: suPAR_DB01_G02 (scFv, V domains shown)
VH: QVQLVQSGAEVKKPGASVKVSCKASGYSFTDYYMHWVRQAPGQGLEWMGWIDHENGNTIYAQKFQGRVTMTRDTSTSTVYMELSSLRSEDTAVYYCARGYDVDWFVYWGQGTLVTVSS
VL: DIQMTQSPSSLSASVGDRVTITCSARSSVSYMYWYQQKPGKAPKLLIYRTSNLASGVPSRFSGSGSGTDFTLTISSLQPEDFATYYCQQYHSYPPTFGGGTKVEIK
notes: Screened as scFv
On to B14, for which the off-rate constant (koff) in test [1] was found to be 0.000149 s⁻¹; in test [2], 0.00245 s⁻¹.
